# From the DeepSol protein solubility set
# Test: soluble on expression in E. coli; label from the status in PepcDB or PDB records
row,Sequence,soluble on expression in E. coli
1,MRKAHIMGIEGVGMSALARLLMAEGVAVTGCDLAPGPRARRLGVPVHHGHDPGHLADEDTLVVPTPVPPDHPEVVEARKRGLRVLRRMELLAHFLAQRPSAGVTGTHGKTTTTGMLAAILLEAGLDPWVFLGGELALLPGNARPGRGPRVAEVDESDPLFREVRVSVAVATNLEADHVAPRGERAPNYHESLEALKEAMRGFLAGAKTVVVPAMDPGLLALTEGLPRRLFGPGGEVWAEAVDLSPSGASFRLVHREGPLGEVHLRVPGRHNVHNALAAALAALALGASPEAISRGLSRFPGVGRRFERVGEVGGAWVVDDYAHHPTEVQATLEAALLSGRRVRVFFQPHRLLRTQELWEAFAQALKGAHEVVVLPVYTAGERGRESPEALSDRIAKRLEDLGRPARRMDKEEALAYARATARPEDLLLFMGAGDVTLLARRLVHEG,soluble
2,MRKITSVSVGEQLDSFITRMVQSGRYGSASEVMRSALRLLEQQESRDEAVRNAVIEGLESGESSMTLRDIAAERKQKHRV,soluble
3,MRKKLKAVLFDMDGVLFNSMPYHSEAWHQVMKTHGLDLSREEAYMHEGRTGASTINIVFQRELGKEATQEEIESIYHEKSILFNSYPEAERMPGAWELLQKVKSEGLTPMVVTGSGQLSLLERLEHNFPGMFHKELMVTAFDVKYGKPNPEPYLMALKKGGLKADEAVVIENAPLGVEAGHKAGIFTIAVNTGPLDGQVLLDAGADLLFPSMQTLCDSWDTIML,not soluble
4,MRLILLALLALVFPAVAQEDMPAKVWLEKMSQALKEKEFKASIIQLQADHIRPLVYLHGKVNNQEVAFLEYLNGPPKNAVRVGNRVTFIEHDQPAYSILSNHIQGVWPAAFSSQMSDLEVGYQFVMGGRTRIAGRPGQMIRLLPNDEYRYGFQIWLDMDTYLPLRYDMLTQDKQLLEQLMVIELIEFSEPPSILQEAYKQEWPAVIDQAERQDGQNWQFSWLPAGFSVVVRDHHRLIGSHEAVEYIALTDGLANISIYVARAGSTPLPEELITRNGLSLVAEKVGNAEVVAVGKVPTETLARIAKSLMLK,not soluble
5,MRLNKRLPAALSGLLLSAALLAGCSTSGTAETTTTTVSSAAASTTTSTSSASSSSSSSSSSSSSDSSTTAETISNTAEAAQAFLSTLSTEEQDAVLYDYDAEEKSTGWSNFPVTFVQRSGVNLTDLTEEQQAAALNVLKNLLNDDAYQMIEDIMASDQYLNDESNTTEDSLGQYYIAFFGDPSSDSDWSIQFGGHHIGINTTFSDGAITFAPTHLGTQPSEWTNEDGETVAALSNMYETAFAFYDSLAEEQQAQLYQGEELDSMVCAPGSTCDYPTGTGLKGSDLTDEQKELLIDVIANWVGLADEETTETELDAIRETLDDTYINWSGATEYDTSTGDGIYFQISGPKVYIEFANQQGSAGADIDGVITAGWGHIHTIYRDPTNDYANSVTQEAASGMMGGGPGGNGGEMPSGDMPTGEMPSGAPSNLEHHHHHH,not soluble
6,MRLPHQLTGSRFFSFSDEGEFLKSVSAVVDEEEFVRIGSLVQAGLMPITSKEVLATMLGVNPGIIWSLENKPERYYRRFKIPKGKGEREIVAPKVGLKVIQKWFSVQLQDCARIDDHVFGFVPGRSHIDAASVHTNANWVYSIDLTNFFPSTPINWVASSLINIGYDADSADRISKLCCYRGALAQGSPASPVLSNISMRGIDAALGALAAEMDVRVTRYADDITFSAAGEFPQVLPERLESLFSQTPWKISQEKTYFSEAPVRLKVHGLVVNGNTVKLTKGYRNKLRAYRHVLQTNRCRQEDLARLSGHVRYASQVSSRDDLEHHHHHH,not soluble
7,MRLPILLLSILGLSLGFGHDSPSSPAANQYATELADRFFTKFIKAVKYSDVRVMDSLLLSSNENLSSKNMIREFYKYPNTKIHDARFVGRNIATTVFFPLSPHGYDIPFKSADFILKKRFMGDWAITSMENLKYNSGKG,not soluble
8,MRLTEEEVQALLEKADGWKLADERWIVKKYRFQDYLQGIEFVRRIAAISENANHHPFISIDYKLITVKLSSWRAKGLTKLDFDLAKQYDEVYNQMKQGEGE,soluble
9,MRMNLTNHFLVAMPGMKDPYFQNSVIYVCEHNEEGAMGLMINAPVDITVGNMLKQVDVQPVHPRLFEASLDRPVYNGGPISEDRGFILHKPKDYYESSIQMTDDLAVTTSRDILSVLGTEAEPSDYLVALGYSGWSAGQLENELVENSWLTIEATPEIIFDTPITERWKKAVEKLGIDPSQLSADAGHALEHHHHHH,soluble
10,MRNIAVILAGGSGQRLGENIPKQFLKIAGKKVIEHTITVFQNHSLIDEIVVVVHPDYIRDVEDISLRNSFNKLKKILLGGKERYHSSLAAINAYDEEVNLLFHDSVRPLVNERIINDCIRALLTYNAVDVAIPTTDTIIQVDDNNEIVKIPSRILLRNGQTPQAFKRSVIKAAYEKALLDPLFKTTDDCGVVLKYLPDESIYVVNGEQFNMKLTYKEDIFLLDKLFQLRSIRNQPTLLEKSEMEELQGKVVVVFGGTYGIGQDICEICREYKTSLYVYSRSTGVDVSNSQSVRRVLSEIFDKEGRIDWIVNTAGILDKQPLANMSYEAVHQSIDVNYLGNIIVAKESFFYLKESKGSLLFFTSSSYTRGRALYSLYSSSKAAIVNFVQALSEEWFEYGIRVNCINPERTKTPMRIQNFGNEPEDTLLEPKVVAIVSVNTLLSEMTGEVVDVKRLEHHHHHH,not soluble
11,MRNSLFTTLFFGLAALVMVLNAQYTSELEEDEKRGGARAMLHKRGGARAFSADVGDDYKRGGARAFYDEKRGGARAFLTEMKRGGARVFQGFEDEKRGGARAFMMDKRGGGRAFGDMMKRGGARAFVENSKRDEDWVIRPFEDDRLEKRGGGRSFPVKPGRLDD,not soluble
12,MRNTKIRAVQYGCGKMSKVILNYLVDHGVEIVGAIDKNPAVVGQDIGDFAGFGHKTGIIISDKADQVFDNCDADIAIVTIFSYMPEMYEFYEMAIKHGVNVISTCEEAIYPWTTSPSETNRLDKLAKENHVTIMGSGMQDIYWINMPCLAMAGMNKIKKVRGVVSYNVEDYGLALAEAHGAGYDLERFERDIASAESLPSYMWNAAEAICSKMNWTIQSINQKSVPYILDEDVYSETLGRTIPAGQVTGMSAVTKVQTHQGIDLEVECIGKVYRQDDGDMCDWEITGEPDLIFSVNKPDTVALTCGTIVNRIPTVLDAPAGYITSEKARLITYPSYPLHTYVEK,not soluble
13,MRPQIMPFYIEMGKGDGGITGEDILQNWMLKSNLKNVEILEELPLRPTKLVVAISEEIYPDVYTIEDFKEKVGDREVFIASEFPEIARKYAEKHGLNAIVFDPIGKTEAALLPPMPEADLIIEITEFGTTLKENMCRIIDLVMDKVHSVFIVNKESLKDEEKKQVMENLVTDLKEVIESRNLVSFYFNVPNEDDLRRIIDYLTENGFDPTISPLAKGGAAVHIIVDRSRVKFLKPIIRGMGAKRIATSPVITSGTNRAAQQKPFYLLSGIQREFPSASPFF,not soluble
14,MRPTRKCEFCGKTFVPRSGMQKYCSEECQAETKRLRKKRQQDLINGIEPIMDLQHQEYLTFSKAAILMGCTRQYIYKLVANGKLKASRLSSRMAFVRKADIEKMFEGHPYKRVVPASKSKLSKKAKAEKPTQNQEPTKGKEENDVLDYYSGEEVMSIYKVKKSWLYTSAKRNQIPMCRIAGKNYYSKRHIDEFFGTAVDLNSITEWVTADDVEEAFSMSKSALRAYTYRHKIPTKREYGRTYYSKEHLEELRRTDLMSDDSYYTTEQVQQIYGLTSANICHIVRVHHISKVKVGVKNLLLKTDVERAMAERAAKGL,not soluble
15,MRQDDLKLLGKIVTTHGIRGQLKVASFSGEFDTILSLETVVLKGKDGRMETFPVARATVHHDRVLLSLTPFTNINEVLHLISAVSYAHRDQFPPLEEGEYYWCDLIGLQVVTAAGTVIGRLDSILPTESHDVYVVRGADREYLIPAVEDVVVQVDLEAGTMTVSPPEGLLDLLEHHHHHH,soluble
16,MRQQTCTTVTLRQRPIRNGRISLYLDYYPAVRNPKTMKLSRREYLGFYIYATPKNAIELDYNNEILAKAELIRCRRQEAVINEEFGFMDRHKMRADFMAYFKEVCRKKDHKWHIVYLHFEKFVNGKCMFGEITVDLCNRFRDYLLHARQLKHTDKMVSRNSAASYFSLFRGVLKLAYRDKYLRENPNDFLEKIESRDIHKEFLTQDELKTLASTPCDIPVLRNASLFSCLTGLRISDILNLKWENLCTAPDLGHCIRLRTQKTQTEALLPISYEAYALCGEPGTGKVFKELRRCMTGYPLKAWIKKAGIQKHITFHCLSHSKLFYLLNISELSILKNVTANDLETSYILFLSQLCNIQRTL,not soluble
17,MRQRKDMPHNRLQTGGMTDEPTDIKAEAKPARTSDLRGFIRLLEERGQLRRIRQPVSLVHEITEIHRRVLADGGPALLFEQPVDHEGKVRKMPLLANLFGTRQRIEWGLGLETGGLPALGQKLTELREPRPPKSMAEAWSKLPLLRAALSMRQRNVSRAPVQEKVLTRDAVDLARLPVQWCWPGEPAPLITWPLVITRSPDDPDDINVGIYRMQVLGPDRVIMRWLAHRGGAHHHRLWQARGLDMPVTVAIGADPATILAAVMPLPDHISELGFSGLLRGAKSRIAKALTVPMPVPANAEIVLEGTVSATETAMEGPYGDHTGYYNSVEAFPVMTLSAITMRRDPIYLSTYTGRPPDEPSVLGEAMLEIFLPLVKRQFAEIVDLWMPPEACSYRVMVASIDKRYPGQAKRVMMGLWSMLPQFSYVKLIILVDPDIDVRSWTDVVWALSTRFDASRDTTIINDTPIDYLDFASPKAGLGGKMGLDATRKLPPETEREWGRVLSMTPDVVAKVDLVWRDLGLGERPVDKLAAALEHHHHHH,not soluble
18,MRREALKTAVLKIMIEKMELKNVTHLEETMRLNQDLYIDSVMMLQLIVYIEMDVKLCVPEDEVDPKAFLTVGSLLDFMEELEPLQEVNVNN,not soluble
19,MRRSNEPTKRKSTTGHGDYAEHKKRKSMSKEATPVLEENLTPDVMINNLHEIVTQILENQELPETAIIELEGFDATAATMEEYMQKREETRKLVTDSEFFDQKTELNLSVASLAGAQVEVDKRVTTRGMSRKLHDECGINEKDILYQGLDYHGTESRVSKELRDSRQASIIESCVDFQKQIQWKIGIMEKVKAKSGRSYPMSDGPSVRTRGGQDKQREEMKKQQKELEKSKKQRKTRAAGEQDPFKTPQKKIEFNALDERRIIENYQLEVASEIRTHRPFLSRSIAPVPFNIDILDDEEEEMEIS,not soluble
20,MRRVGESSTGDRKALRSGLKRQGSADEDDIESIFSGIGSARINEPKAKKDDDESNEEKYFSVGKDGRRYHEGLPVYTTEELHLGDGGGDTEDCPIYCDCCL,not soluble
21,MRSRRVDVMDVMNRLILAMDLMNRDDALRVTGEVREYIDTVKIGYPLVLSEGMDIIAEFRKRFGCRIIADFKVADIPETNEKICRATFKAGADAIIVHGFRGADSVRACLNVAEEMGREVFLLTEMSHPGAEMFIQGAADEIARMGVDLGVKNYVGPSTRPERLSRLREIIGQDSFLISPGVGAQGGDPGETLRFADAIIVGRSIYLADNPAAAAAGIIESIKDLLNP,not soluble
22,MRSSNNRHEGEEAMNRTQQWMEDLQKNISDLIARSPAADVERNVRAMMTQTFARLDLITREEFEVQVDLLARARTRVDQLSAQVQQLEARLAALEAGKPQA,not soluble
23,MRTELLSKLYDDFGIDQLPHTQHGVTSDRLGKLYEKYILDIFKDIESLKKYNTNAFPQEKDISSKLLKALNLDLDNIIDVSSSDTDLGRTIAGGSPKTDATIRFTFHNQSSRLVPLNIKHSSKKKVSIAEYDVETICTGVGISDGELKELIRKHQNDQSAKLFTPVQKQRLTELLEPYRERFIRWCVTLRAEKSEGNILHPDLLIRFQVIDREYVDVTIKNIDDYVSDRIAEGSKARKPGFGTGLNWTYASGSKAKKMQFKG,soluble
